From IntAct's records for PubMed 20133777

B1: Receptor-type tyrosine-protein phosphatase T (Homo sapiens), O14522-1 (parent)
chain: MASLAALALSLLLRLQLPPLPGARAQSAAGGCSFDEHYSNCGYSVALGTNGFTWEQINTWEKPMLDQAVPTGSFMMVNSSGRASGQKAHLLLPTLKENDTHCIDFHYYFSSRDRSSPGALNVYVKVNGGPQGNPVWNVSGVVTEGWVKAELAISTFWPHFYQVIFESVSLKGHPGYIAVDEVRVLAHPCRKAPHFLRLQNVEVNVGQNATFQCIAGGKWSQHDKLWLQQWNGRDTALMVTRVVNHRRFSATVSVADTAQRSVSKYRCVIRSDGGSGVSNYAELIVKEPPTPIAPPELLAVGATYLWIKPNANSIIGDGPIILKEVEYRTTTGTWAETHIVDSPNYKLWHLDPDVEYEIRVLLTRPGEGGTGPPGPPLTTRTKCADPVHGPQNVEIVDIRARQLTLQWEPFGYAVTRCHSYNLTVQYQYVFNQQQYEAEEVIQTSSHYTLRGLRPFMTIRLRLLLSNPEGRMESEELVVQTEEDVPGAVPLESIQGGPFEEKIYIQWKPPNETNGVITLYEINYKAVGSLDPSADLSSQRGKVFKLRNETHHLFVGLYPGTTYSFTIKASTAKGFGPPVTTRIATKISAPSMPEYDTDTPLNETDTTITVMLKPAQSRGAPVSVYQLVVKEERLQKSRRAADIIECFSVPVSYRNASSLDSLHYFAAELKPANLPVTQPFTVGDNKTYNGYWNPPLSPLKSYSIYFQALSKANGETKINCVRLATKAPMGSAQVTPGTPLCLLTTGASTQNSNTVEPEKQVDNTVKMAGVIAGLLMFIIILLGVMLTIKRRRNAYSYSYYLSQRKLAKKQKETQSGAQREMGPVASADKPTTKLSASRNDEGFSSSSQDVNGFTDGSRGELSQPTLTIQTHPYRTCDPVEMSYPRDQFQPAIRVADLLQHITQMKRGQGYGFKEEYEALPEGQTASWDTAKEDENRNKNRYGNIISYDHSRVRLLVLDGDPHSDYINANYIDGYHRPRHYIATQGPMQETVKDFWRMIWQENSASIVMVTNLVEVGRVKCVRYWPDDTEVYGDIKVTLIETEPLAEYVIRTFTVQKKGYHEIRELRLFHFTSWPDHGVPCYATGLLGFVRQVKFLNPPEAGPIVVHCSAGAGRTGCFIAIDTMLDMAENEGVVDIFNCVRELRAQRVNLVQTEEQYVFVHDAILEACLCGNTAIPVCEFRSLYYNISRLDPQTNSSQIKDEFQTLNIVTPRVRPEDCSIGLLPRNHDKNRSMDVLPLDRCLPFLISVDGESSNYINAALMDSHKQPAAFVVTQHPLPNTVADFWRLVFDYNCSSVVMLNEMDTAQFCMQYWPEKTSGCYGPIQVEFVSADIDEDIIHRIFRICNMARPQDGYRIVQHLQYIGWPAYRDTPPSKRSLLKVVRRLEKWQEQYDGREGRTVVHCLNGGGRSGTFCAICSVCEMIQQQNIIDVFHIVKTLRNNKSNMVETLEQYKFVYEVALEYLSSF

Variants of: B1
Settings: with paxi_human PXN

Variant	effect of a mutation on the interaction
D1074A	increasing interaction
D1074A;C1106S	increasing interaction
